Test results: publication PMC10583602

How the values were obtained:
[1] = biological target: TnsC(ΔA106–A113) (Vibrio cholerae); assay: SEC
[2] = biological target: Vibrio cholerae TnsC (VchTnsC), full length, tag cleaved (Vibrio cholerae); assay: cryo-EM structure
[3] = biological target: Vibrio cholerae TnsC (VchTnsC), full length, tag cleaved (Vibrio cholerae); assay: SEC
[4] = biological target: TnsC with the apical loop E69-D75 deleted (Vibrio cholerae); assay: SEC

TnsC(ΔA106–A113) (natural protein)
stoichiometry N [1]: 7

Vibrio cholerae TnsC (VchTnsC), full length, tag cleaved (natural protein)
stoichiometry N [2]: 7
stoichiometry N [3]: 7

TnsC with the apical loop E69-D75 deleted (natural protein)
stoichiometry N [4]: 7
